{"source": "the nanobody polyreactivity screen of Harvey et al. (2022)", "data": [{"assay": "yeast display, Sf9 membrane polyspecificity reagent, FACS + sequencing; frameworks hold sequencing errors", "in_short": "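A synthetic nanobody library was expressed on Saccharomyces cerevisiae BJ5465 by galactose induction for 36–48 hours. The library was stained for 1 hour at 4 °C with 10% biotinylated, detergent-solubilized Sf9 membrane reagent and enriched with streptavidin microbeads before FACS. Low and high (top ~1%) gates were set on anti-HA fluorescence for expression and streptavidin fluorescence for reagent binding, and each polyreactivity label reflects the gate of origin.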", "values": [{"sequence": "QVQLVESGGGLVQAGGSLRLSCAASGNTLIVNAMGWYRQAPGKERELVAAITRDGRTNYADSVKGRFTISRDNAKNTFYLQMNSLKPEDTAVYYCNALSADWFPEEDYWGQGTQVTVSS", "polyreactivity (PSR sort gate)": "low polyreactivity"}, {"sequence": "QVQLVESGGGLVQAGGSLRLSCAASGNTLIVNAMGWYRQAPGKETELVAAITRDGRTNYADSVKGRFTISRDNAKNTVYLQMNSLKPEDTAVYYCAAEGVPDALDRDYWGQGTQVTVSS", "polyreactivity (PSR sort gate)": "low polyreactivity"}, {"sequence": "QVQLVESGGGLVQAGGSLRLSCAASGNTLTPYTMGWYRQAPGKERELVAAINRSGGSTYYADSVKGRVTISRDNGKNTVYLQMNSLKPEDTAVYYCAAFGYYNFGYYYWGQGSQVTVSS", "polyreactivity (PSR sort gate)": "high polyreactivity"}, {"sequence": "QVQLVESGGGLVQAGGSLRLSCAASGNTLTYNVMGWYRQGPGKERELVAAISGRGGRTYYADSVKGRFTISRDNAKNTVYLQMNSLKPEATAVYDCATRDRAGYYYWGQGTQVTVSS", "polyreactivity (PSR sort gate)": "high polyreactivity"}, {"sequence": "QVQLVESGGGLVQAGGSLRLSCAASGNTLWRNAMGWSRQAPGKERELVATISSVGTYYADSVKGRFTISRDNAKNTVYLQMNSLKPEDTAVYYCAARIWAFYSRRYYWGQGTQVTVSS", "polyreactivity (PSR sort gate)": "high polyreactivity"}, {"sequence": "QVQLVESGGGLVQAGGSLRLSCAASGNTLYRNALGWYRQAPGKERELVAAIRLSGGSTYYADSVKGRFTISRDNAKNTVYLQMNSLKPEDTAVYYCAVRIRYYTGFYSWGQGTQVTVSS", "polyreactivity (PSR sort gate)": "high polyreactivity"}, {"sequence": "QVQLVESGGGLVQAGGSLRLSCAASGNTSPFYAMGWYRQAPGKERELVAAISANGGSTTYADSVKGRFTISRDNAKNTVYLQMNSLKPEDTALYYCNALSLLSDGAASVDQVTFDYWGQGTQVTVSS", "polyreactivity (PSR sort gate)": "low polyreactivity"}, {"sequence": "QVQLVESGGGLVQAGGSLRLSCAASGNTVFKNAMVWYRQAPGKERELVAAISKRGGSTYYADSVKGRFTISRDNAKNTVYIQMNSLIPEDTAVYYCAADTFGVYASTYDYWGQGTQVTVSS", "polyreactivity (PSR sort gate)": "high polyreactivity"}, {"sequence": "QVQLVESGGGLVQAGGSLRLSCAASGPIFDGYVMGWYRQAPGKERELVAAISKSGARTYYADSVKGRFTISRDNAKNTVYLQMNSLKPEHTAVYYCARFSGVDNAYDYWGQGTQVTVSS", "polyreactivity (PSR sort gate)": "high polyreactivity"}, {"sequence": "QVQLVESGGGLVQAGGSLRLSCAASGPIFKRNDMGWYRQSHGKERELVAAISGSGGRTYYADSLKGRFTISRDNAKNTVYLQMNSLKPEDTAVYYCNAGGSYYARGMDYWGQGTQVTVSS", "polyreactivity (PSR sort gate)": "high polyreactivity"}, {"sequence": "QVQLVESGGGLVQAGGSLRLSCAASGPIFRGYAMGWYRQAPGKERELVARITSGGRTYYADSVKGRFTISRDNAKNTVYLQMNSLKPEDTAVYYWATVGRGYDERHNYWGQGTQVTVSS", "polyreactivity (PSR sort gate)": "high polyreactivity"}, {"sequence": "QVQLVESGGGLVQAGGSLRLSCAASGPIFVHNAKGWYRQAPGTERELVAAISWRATRTYYADSVKGRFTISRDNAKNTVYLQMNSLKPEDTAVYYCAAVTPAYSTSTSSYDYWGQGTQVTVSS", "polyreactivity (PSR sort gate)": "high polyreactivity"}, {"sequence": "QVQLVESGGGLVQAGGSLRLSCAASGPTFLYNAMGWYRQAPGKERELVAAISRSAVSTYYADSVKGRFTISRDNAKNTVYLQINSLKPDDTAVYYCSADYRGRYATYRSYASVLYDYWGQGTQVTVSW", "polyreactivity (PSR sort gate)": "low polyreactivity"}, {"sequence": "QVQLVESGGGLVQAGGSLRLSCAASGPTFPFNAMGWYRQAPGKERELVAAISWRDGRTYYADSVKGRFTISRDYAKNTVYLQMNSLKPEDTAVYYCNVVKRRSDWGMDYWGQGTQVTVSS", "polyreactivity (PSR sort gate)": "high polyreactivity"}, {"sequence": "QVQLVESGGGLVQAGGSLRLSCAASGPTFPVKSMGWYRQAPGKERELVAAISWRDGRTYYADSVKGRFTISRDNAKNTVYLQMNSLKPEDTAVYYCNVVKRRSDWGMDYWGQGTQVTVSS", "polyreactivity (PSR sort gate)": "high polyreactivity"}, {"sequence": "QVQLVESGGGLVQAGGSLRLSCAASGPTFSQNVMGWYRQAPGKERELVAGISSGDITDYADSVKGRFTISRDNAKNTVYLQMNSPKPEDTAVYYCTYYGKSGGYRYTYYYWGQGTQVTVSS", "polyreactivity (PSR sort gate)": "high polyreactivity"}, {"sequence": "QVQLVESGGGLVQAGGSLRLSCAASGRFFRYNAMGWYRQAPGKERELVAAIRYSGTSTYYADSVKGRFTISRDNAKNTVYFQMNSLKPEDTAVYYCAAYKRYYYGYDYWGQGTQVTVSS", "polyreactivity (PSR sort gate)": "high polyreactivity"}, {"sequence": "QVQLVESGGGLVQAGGSLRLSCAASGRIDAYYAMGWYRQAPGKERELVAGISQRGSRTYYADSVKGRFTISRDNAKNTVYLQMNSLKPEDTAVYYCAARDRRSVTMDYWGQGTQVTVSS", "polyreactivity (PSR sort gate)": "high polyreactivity"}, {"sequence": "QVQLVESGGGLVQAGGSLRLSCAASGRIFAAYAMGWYRQAPGKERELVAAISWSGANTYYADSVKGRFTISRDNAKNTVYLQMNSLKPEDTAVYYCATLSKSYGVRRYKSDYWGQGTQVTVSS", "polyreactivity (PSR sort gate)": "high polyreactivity"}, {"sequence": "QVQLVESGGGLVQAGGSLRLSCAASGRIFADNAMGWYRQAPGKERELVATISRNGGRTSYADSVKGRFTISRDNAKNTVYLQMNSLNPEVTAVYYCAVRAPGSSEGYYWGQGSQVTVSS", "polyreactivity (PSR sort gate)": "low polyreactivity"}, {"sequence": "QVQLVESGGGLVQAGGSLRLSCAASGRIFAFYALGWYIQAPGKERELVAAISWSDDITYYADSVKGRFTISRDNAKNTVYSQMNSLKPEDTAVYYCAYRRRGYAFSSDYWGQGTQVTVSS", "polyreactivity (PSR sort gate)": "high polyreactivity"}, {"sequence": "QVQLVESGGGLVQAGGSLRLSCAASGRIFAGYAMGWYRQAPGKERELVAAISDGGTTNYADSVKGRFTISRDNAKNTVYLQMNSLKPEDTAVYYCAAKSRTYQSYYYWGQGTQVTVSS", "polyreactivity (PSR sort gate)": "low polyreactivity"}, {"sequence": "QVQLVESGGGLVQAGGSLRLSCAASGRIFAHNAMGWYRQAPGKERELVAAINSGGSTRYADSVKGRFTISRDNAKNTVYLQMNSLKPEDTAVYYCARGPKGYYFARYGYWGQGTQVTVSS", "polyreactivity (PSR sort gate)": "high polyreactivity"}, {"sequence": "QVQLVESGGGLVQAGGSLRLSCAASGRIFAHYAMGWYRQAPGKERELVADITDGGSTYYADSVKGRFTISRDNAKNTVYLQMNSLKPEDTAVYYVATRRGPWPSEYDSWGQGTQVTVSS", "polyreactivity (PSR sort gate)": "low polyreactivity"}, {"sequence": "QVQLVESGGGLVQAGGSLRLSCAASGRIFAIYAMGWYRQAPGKERELVAGITYSAGSTYYADSVKGRFTISRDNAKNTVYLQMNSLKPEDTAVYYCAALEYNSHRYGYDYWGQGTQVTVSS", "polyreactivity (PSR sort gate)": "low polyreactivity"}, {"sequence": "QVQLVESGGGLVQAGGSLRLSCAASGRIFAKNAMGWYRQAPGKERELVAAINHSGGSTYYADSVKGRFTISRDNAKNTVYLQMNSLKPEDTAVYYCAARGLTTRSPFYYWGQGTQVTVSS", "polyreactivity (PSR sort gate)": "high polyreactivity"}, {"sequence": "QVQLVESGGGLVQAGGSLRLSCAASGRIFAPKAMGWYRQAPGKERELVADINFSGDSTYYADSVKGRFTISRDNAKNTVYLQMNSLKPEDTAVYYCAADISLVSYYYWGQGTQVTVSS", "polyreactivity (PSR sort gate)": "low polyreactivity"}, {"sequence": "QVQLVESGGGLVQAGGSLRLSCAASGRIFAPYAKGRYRQAPGKERELVAAIRWRGGSTSYADSVKGRFTISRDNAKNTVYLQLNSLKPEDSAVYSCNADYGFSFYWYDYWGHGTQVTVSS", "polyreactivity (PSR sort gate)": "low polyreactivity"}, {"sequence": "QVQLVESGGGLVQAGGSLRLSCAASGRIFARNAMGWYRQAPGKEREFVAAITHSGGNTYYADSVKGRFTISRDNAKNTVYLQMNSLKPEATAVYYCAKDYRSTKYDYWGQGTQVTVSS", "polyreactivity (PSR sort gate)": "low polyreactivity"}, {"sequence": "QVQLVESGGGLVQAGGSLRLSCAASGRIFASNAMGWYRQAPGKERELVAGISRNGGSTFYADSVKGRFTISRDNAKNTVYLQMNSLKPEDTAVYYCARYYTHSGGYRDRIYYYWGQGTQVTVSS", "polyreactivity (PSR sort gate)": "low polyreactivity"}, {"sequence": "QVQLVESGGGLVQAGGSLRLSCAASGRIFASYAMGWYRQAPGKERELVAAISAGGGSRTYYADSVKGRFTISRDNAKNTVYLQMNSLKPEDTAVYYCNTANSWLRQYYYWGQGTQVTVSS", "polyreactivity (PSR sort gate)": "high polyreactivity"}, {"sequence": "QVQLVESGGGLVQAGGSLRLSCAASGRIFATNAMGWYIQAPGKERELVAAISWDGGSTYYADSVKGRFTISRDNAKNTVYLQMNSLKPEDTAVYYCNKVLYYAYDYWGQGTQVTVSS", "polyreactivity (PSR sort gate)": "low polyreactivity"}, {"sequence": "QVQLVESGGGLVQAGGSLRLSCAASGRIFAVNALGWYRQAPGPERELVATIRGSGTSTYYADSVKGRFTISRDHATNTVYLQMNSLKPEDTAVYYCAKAYNGRYTWRYDYWGQGTQVTVSS", "polyreactivity (PSR sort gate)": "high polyreactivity"}, {"sequence": "QVQLVESGGGLVQAGGSLRLSCAASGRIFAVNTMGWYRQAPGKEREFVAAISDSGGGTYYADSVKGRFTISRDNAKKTVYLQMNSLKPEDTAVYYCNAKGQRSPYSKLEYWGQGTQVTVSS", "polyreactivity (PSR sort gate)": "high polyreactivity"}, {"sequence": "QVQLVESGGGLVQAGGSLRLSCAASGRIFAVYAMGWYRQAPGKERELVAAISWSGGRTYYADSVKGRFTISRDNAKNTVYLQMNSLKPEDTAVYYCNRTPTGSYLYGMDYWGQGTQVTVSS", "polyreactivity (PSR sort gate)": "high polyreactivity"}, {"sequence": "QVQLVESGGGLVQAGGSLRLSCAASGRIFAWDAMGRYRQAPGKERELVAAITWGGGRTYYADSVKGRFTISRDNAKNTVYLQMNSLKPEDTAVYYCAAYSYKEEAYRGVAQERDYWGQGTQVTVSS", "polyreactivity (PSR sort gate)": "low polyreactivity"}, {"sequence": "QVQLVESGGGLVQAGGSLRLSCAASGRIFAWYAMGWYRQSPGKESELVAAISDSGGSTYYADSVKGRFTISRDNAKNTVYLQMNSLKPEDTAVYYCAADQVVYSAYWSDHYDYWGQGTQVTVSS", "polyreactivity (PSR sort gate)": "low polyreactivity"}, {"sequence": "QVQLVESGGGLVQAGGSLRLSCAASGRIFAYNAMGWYREAPGKERELVASITSGGGRTYYADSVKGRFTISRDNAKNTVYLQMNSLKPEDTAVYYCNVDVSLSKFGSVLYDYWGQGTQVTVSS", "polyreactivity (PSR sort gate)": "low polyreactivity"}, {"sequence": "QVQLVESGGGLVQAGGSLRLSCAASGRIFAYNTMGWYRQAHGKEREFVAVITSGGSTNYADSVKGRFTISRDNAKNTVFLLLNSLKPEDTAVYYCAKRPYGRSGGSRYDYWGQGTKVTVSS", "polyreactivity (PSR sort gate)": "high polyreactivity"}, {"sequence": "QVQLVESGGGLVQAGGSLRLSCAASGRIFAYYAMEWYRQAPGKERELVAAITRSGARTYYADSVKGRFTISRDNAKNSVYLQMNSLKPEDTAVYYFAAEGVRIGTRYDYWGQGTQVTVSS", "polyreactivity (PSR sort gate)": "high polyreactivity"}, {"sequence": "QVQLVESGGGLVQAGGSLRLSCAASGRIFAYYAMGWYRQAPGKERELVAAINTSGAPTNYADSVKGRFTISRDNAKNTVYLQMISLKPEDTAVYYCAARRARYHVEYYYWGQGTQVTVSS", "polyreactivity (PSR sort gate)": "high polyreactivity"}, {"sequence": "QVQLVESGGGLVQAGGSLRLSCAASGRIFAYYAMGWYRQAPGKERELVAAISFIGGSTYYADSVKGRFTISRDNAKNTVYLQMNSLKPEDTAVDYCTAGYVRRYSPSSSWRYDYWGQGTQVTVSS", "polyreactivity (PSR sort gate)": "high polyreactivity"}, {"sequence": "QVQLVESGGGLVQAGGSLRLSCAASGRIFAYYAMGWYRQAPGKERELVAAISRGGGSTSYADSVKGRFTISRDNAKNTFYLQMNSLKPEDTAVYYCAKDRGYRYLGDYWGQGTQVTVSS", "polyreactivity (PSR sort gate)": "low polyreactivity"}]}]}
